Measured values reported in patent publication US20240141072A1 (published 2024).
Numbering of substitutions follows the chain as printed. Values belong to the binder of their own block, whether it stands above or below them.

Legend:
[1] = molecular target: T1, biotinylated human DLL3 protein expressed as a human IgG1 fusion protein (human, UniProt Q9NYJ7 27-492, limits assumed, biotinylated); assay: Octet BLI, single 50 nM
T1 sequence: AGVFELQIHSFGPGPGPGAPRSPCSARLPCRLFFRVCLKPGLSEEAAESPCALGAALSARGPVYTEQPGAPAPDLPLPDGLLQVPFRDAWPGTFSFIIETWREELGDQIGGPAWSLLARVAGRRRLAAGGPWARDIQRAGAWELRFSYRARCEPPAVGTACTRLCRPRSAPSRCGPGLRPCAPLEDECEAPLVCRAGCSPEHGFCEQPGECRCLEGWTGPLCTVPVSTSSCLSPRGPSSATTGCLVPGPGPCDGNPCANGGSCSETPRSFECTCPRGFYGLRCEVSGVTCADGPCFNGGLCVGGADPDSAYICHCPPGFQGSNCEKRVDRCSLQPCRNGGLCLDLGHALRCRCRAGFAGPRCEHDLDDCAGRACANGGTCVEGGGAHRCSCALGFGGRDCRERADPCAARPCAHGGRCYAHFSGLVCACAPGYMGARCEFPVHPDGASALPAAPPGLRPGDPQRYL
Outline: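 Unpurified trispecific binders in conditioned medium, each at a known concentration, are assayed for affinity to human DLL3.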

[2] = molecular target: T2, human DLL3 on DLL3-expressing tumor cell lines (human, UniProt Q9NYJ7 27-618); assay: cell-based or functional assay
T2 sequence: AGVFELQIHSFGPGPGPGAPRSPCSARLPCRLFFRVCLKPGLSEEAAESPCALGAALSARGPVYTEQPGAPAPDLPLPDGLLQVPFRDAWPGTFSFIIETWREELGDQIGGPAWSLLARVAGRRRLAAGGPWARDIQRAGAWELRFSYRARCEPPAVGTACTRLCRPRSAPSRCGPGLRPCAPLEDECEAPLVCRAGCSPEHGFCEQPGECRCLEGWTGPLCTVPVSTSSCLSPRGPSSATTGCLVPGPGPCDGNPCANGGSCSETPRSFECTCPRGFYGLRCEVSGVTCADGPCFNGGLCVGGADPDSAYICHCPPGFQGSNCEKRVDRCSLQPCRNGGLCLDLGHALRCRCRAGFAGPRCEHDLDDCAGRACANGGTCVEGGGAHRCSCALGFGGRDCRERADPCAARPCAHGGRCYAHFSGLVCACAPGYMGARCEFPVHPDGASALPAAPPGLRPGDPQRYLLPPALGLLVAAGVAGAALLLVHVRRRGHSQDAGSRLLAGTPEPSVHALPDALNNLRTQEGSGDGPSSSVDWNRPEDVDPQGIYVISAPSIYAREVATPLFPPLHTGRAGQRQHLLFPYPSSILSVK

Kd [1]: 10 nM
B1: 4B08 anti-DLL3 trispecific protein (other)
chain: EVQLVESGGGLVQPGGSLTLSCAASGSSVSFMSMAWYRQAPGKKRELVAGISADGSTDYIASVKGRFTISRDNAKNSVYLQMNSLRAEDTAVYYCYAYRWTTRSTYWGQGTLVTVSS
notes: not shown: linker 1808, anti-albumin sdAb, linker 1808, anti-CD3 fragment, His6 1819

Kd [1]: 7.5 nM
B2: 4G011 anti-DLL3 trispecific protein (other)
chain: B1 chain with S30R, M32L, A61G, T101S, S104Y
notes: as for B1

Kd [1]: 18 nM
B3: 4G07 anti-DLL3 trispecific protein (other)
chain: B1 chain with M32L, M34V, D54N, A61D, T102N, S104Y
notes: as for B1

Kd [1]: 9 nM
B4: 4E010 anti-DLL3 trispecific protein (other)
chain: B1 chain with S30K, M32L, A61D, T101R, S104Y
notes: as for B1

Kd [1]: 6.8 nM
B5: 4C02 anti-DLL3 trispecific protein (other)
chain: B1 chain with S28K, M32L, D58T, A61D, S104F
notes: as for B1

Kd [1]: 8.8 nM
B6: 4F09 anti-DLL3 trispecific protein (other)
chain: B1 chain with S28R, M32L, A61E, S104Y
notes: as for B1

Kd [1]: 9.9 nM
B7: 4D010 anti-DLL3 trispecific protein (other)
chain: B1 chain with M32L, A61H, T101R, S104Y
notes: as for B1

Kd [1]: 5.4 nM
B8: 4B09 anti-DLL3 trispecific protein (other)
chain: B1 chain with M32L, A61S, R99S, S104Y
notes: as for B1

Kd [1]: 6.5 nM
B9: 4D05 anti-DLL3 trispecific protein (other)
chain: B1 chain with V29S, M32L, D58V, A61D, S104R
notes: as for B1

Kd [1]: 5.9 nM
B10: 4D08 anti-DLL3 trispecific protein (other)
chain: B1 chain with S30N, M32L, D58H, A61D, T101L, S104Y
notes: as for B1

Kd [1]: 11 nM
B11: 4E01 anti-DLL3 trispecific protein (other)
chain: B1 chain with M32L, M34V, A53R, A61D, T101R, S104Y
notes: as for B1

Kd [1]: 3.7 nM
B12: 4D01 anti-DLL3 trispecific protein (other)
chain: B1 chain with S30R, M32L, D58V, A61D, S104R
notes: as for B1

Kd [1]: 6.6 nM
B13: 4C03 anti-DLL3 trispecific protein (other)
chain: B1 chain with S28K, A53V, A61D, T101R, S104Y
notes: as for B1

Kd [1]: 7.2 nM
B14: 4E08 anti-DLL3 trispecific protein (other)
chain: B1 chain with S30K, M32L, A53T, A61D, R99K, S104Y
notes: as for B1

Kd [1]: 13 nM
B15: 4H03 anti-DLL3 trispecific protein (other)
chain: B1 chain with S28R, M32L, D58S, A61D, S104Y
notes: as for B1

Kd [1]: 8.9 nM
B16: 4H08 anti-DLL3 trispecific protein (other)
chain: B1 chain with S30K, M32L, I60V, A61D, T101S, S104Y
notes: as for B1

Kd [1]: 8.6 nM
B17: 4D04 anti-DLL3 trispecific protein (other)
chain: B1 chain with M32L, M34I, A53K, A61D, S104M
notes: as for B1

Kd [1]: 9.8 nM
B18: 4F04 anti-DLL3 trispecific protein (other)
chain: B1 chain with G26R, M32L, A53T, A61D, T101L, S104Y
notes: as for B1

Kd [1]: 8.3 nM
B19: 4C05 anti-DLL3 trispecific protein (other)
chain: B1 chain with F31N, M32L, D58A, A61D, S104R
notes: as for B1

Kd [1]: 5.8 nM
B20: 4F010 anti-DLL3 trispecific protein (other)
chain: B1 chain with M32L, A53I, A61K, S104Y, T105R
notes: as for B1

Kd [1]: 7 nM
B21: 4C010 anti-DLL3 trispecific protein (other)
chain: B1 chain with S28K, A61D, S104L
notes: as for B1

Kd [1]: 7.6 nM
B22: 4G08 anti-DLL3 trispecific protein (other)
chain: B1 chain with S30R, M32L, A53T, A61D, S104Y, T105R
notes: as for B1

Kd [1]: 7.5 nM
B23: 4C07 anti-DLL3 trispecific protein (other)
chain: B1 chain with S28K, M32L, T57K, A61D, S104L
notes: as for B1

Kd [1]: 20 nM
B24: 4G03 anti-DLL3 trispecific protein (other)
chain: B1 chain with S30K, M32L, A61H, T102R, S104Y
notes: as for B1

Kd [1]: 21 nM
B25: 4H01 anti-DLL3 trispecific protein (other)
chain: B1 chain with M32L, D54N, I60Y, A61D, T101R, S104Y
notes: as for B1

Kd [1]: 16 nM
B26: 4H07 anti-DLL3 trispecific protein (other)
chain: B1 chain with S27R, M32L, D54N, A61D, T101S, S104Y
notes: as for B1

Kd [1]: 16 nM
B27: 4H09 anti-DLL3 trispecific protein (other)
chain: B1 chain with F31K, M32L, I60R, A61D, T102Y, S104Y
notes: as for B1

Kd [1]: 13 nM
B28: 4E011 anti-DLL3 trispecific protein (other)
chain: B1 chain with M32L, D54T, A61D, T101S, S104Y
notes: as for B1

Kd [1]: 12 nM
B29: 4F03 anti-DLL3 trispecific protein (other)
chain: B1 chain with S30Q, M32L, A53Y, A61D, T101R, S104Y
notes: as for B1

Kd [1]: 64 nM
B30: 4H05 anti-DLL3 trispecific protein (other)
chain: B1 chain with F31R, M32L, D54R, A61D
notes: as for B1

Kd [1]: 30 nM
B31: 4D02 anti-DLL3 trispecific protein (other)
chain: B1 chain with S28K, M32L, D54R, A61D, R99Q, S104Y
notes: as for B1

Kd [1]: 9.7 nM
B32: 4G05 anti-DLL3 trispecific protein (other)
chain: B1 chain with F31I, M32L, D58I, A61D, T101H, S104Y
notes: as for B1

Kd [1]: 7.5 nM
B33: 4D06 anti-DLL3 trispecific protein (other)
chain: B1 chain with S30K, M32L, A53P, A61D, S104Y, T105R
notes: as for B1

Kd [1]: 10 nM
B34: 4E06 anti-DLL3 trispecific protein (other)
chain: B1 chain with S27T, M32L, A61R, S104L
notes: as for B1

Kd [1]: 9.9 nM
B35: 4G010 anti-DLL3 trispecific protein (other)
chain: B1 chain with S27H, M32L, T101S, S104Y
notes: as for B1

Kd [1]: 8.8 nM
B36: 4G09 anti-DLL3 trispecific protein (other)
chain: B1 chain with S28R, M32L, A53Y, A61D, S104R
notes: as for B1

Kd [1]: 11 nM
B37: 4E07 anti-DLL3 trispecific protein (other)
chain: B1 chain with S28R, M32L, D58M, A61D, S104L
notes: as for B1

Kd [1]: 8.2 nM
B38: 4F011 anti-DLL3 trispecific protein (other)
chain: B1 chain with S28K, M32L, T57K, A61D, S104Y
notes: as for B1

Kd [1]: 15 nM
B39: 4G02 anti-DLL3 trispecific protein (other)
chain: B1 chain with S30K, M32L, A53R, A61D, S104H
notes: as for B1

Kd [1]: 5.1 nM
B40: 4C01 anti-DLL3 trispecific protein (other)
chain: B1 chain with S30R, M32L, D58V, A61D, T101K, S104Y
notes: as for B1

Kd [1]: 3.6 nM
B41: 4G01 anti-DLL3 trispecific protein (other)
chain: B1 chain with S30R, M32L, D58V, A61D, T101P, S104Y
notes: as for B1

Kd [1]: 6 nM
B42: 4C011 anti-DLL3 trispecific protein (other)
chain: B1 chain with S28R, M32L, D58V, A61D, T102R, S104Y
notes: as for B1

Kd [1]: 9.1 nM
B43: 4E09 anti-DLL3 trispecific protein (other)
chain: B1 chain with M32L, M34S, D58L, A61D
notes: as for B1

Kd [1]: 9 nM
B44: 4F08 anti-DLL3 trispecific protein (other)
chain: B1 chain with S28K, M32L, D58A, A61D, T101R, S104Y
notes: as for B1

Kd [1]: 16 nM
B45: 4C08 anti-DLL3 trispecific protein (other)
chain: B1 chain with A23V, S28Q, M32L, I60F, A61D, T102R, S104Y
notes: as for B1

Kd [1]: 15 nM
B46: 4F02 anti-DLL3 trispecific protein (other)
chain: B1 chain with S28T, M32L, A53H, A61D, S104Y
notes: as for B1

Kd [1]: 26 nM
B47: 4D03 anti-DLL3 trispecific protein (other)
chain: B1 chain with S30R, M32L, D54T, A61D, T102R, S104Y
notes: as for B1

Kd [1]: 18 nM
B48: 4H06 anti-DLL3 trispecific protein (other)
chain: B1 chain with S27R, M32L, D58I, A61D, S104Y
notes: as for B1

DMS-153 TDCC EC50 [2]: 0.096 nM | Kd [1]: 6.1 nM
B49: 1C03 anti-DLL3 trispecific protein (other)
chain: EVQLVESGGGLVQPGGSLTLSCVASGSTSSINAMAWYRRAPGKQRELVAGISSDNSKVYADSVKGRFTISRDNAKNSVYLQMNSLRAEDTAVYYCYYFRTVGGSSMRYWGQGTLVTVSS
notes: as for B1

DMS-153 TDCC EC50 [2]: 0.081 nM | Kd [1]: 5.6 nM
B50: 2A04 anti-DLL3 trispecific protein (other)
chain: B49 chain with N55G, A60T, V101T, G102S
notes: as for B1
